T1: Cynomolgus PSGL-1(ECD)-HIS (cynomolgus macaque)
T1 construct: also called Cyno PSGL1-His
T1 chain: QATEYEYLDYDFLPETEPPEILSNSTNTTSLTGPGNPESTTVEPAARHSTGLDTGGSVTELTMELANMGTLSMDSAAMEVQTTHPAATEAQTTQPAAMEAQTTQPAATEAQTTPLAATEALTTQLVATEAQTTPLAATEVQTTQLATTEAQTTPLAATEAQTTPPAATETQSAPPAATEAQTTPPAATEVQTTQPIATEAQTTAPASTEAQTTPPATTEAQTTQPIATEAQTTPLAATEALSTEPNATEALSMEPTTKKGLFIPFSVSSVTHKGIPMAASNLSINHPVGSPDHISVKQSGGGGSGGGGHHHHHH

T2: Recombinant human PSGL-1(ECD)-hFc1 (R&D Systems, Cat. 3345-PS) (human, UniProt Q14242 42-305)
T2 construct: Bought; Gln42-Val295 counted on AAC50061; also called PSGL-1-Fc; PSGL-1-hFc1 chimera; not shown: human IgG1 Fc, Pro100-Lys330
T2 sequence: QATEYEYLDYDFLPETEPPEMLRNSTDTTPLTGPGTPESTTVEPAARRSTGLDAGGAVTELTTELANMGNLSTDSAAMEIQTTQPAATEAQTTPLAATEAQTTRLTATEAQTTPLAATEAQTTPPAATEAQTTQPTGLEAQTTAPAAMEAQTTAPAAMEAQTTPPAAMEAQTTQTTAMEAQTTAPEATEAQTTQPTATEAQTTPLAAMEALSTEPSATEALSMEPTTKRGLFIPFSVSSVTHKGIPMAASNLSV

T3: Biotin PSGL-1(42-62) peptide, unmodified (human, C-terminal Lys-biotin)
T3 construct: Residues 42-62 followed by GGGK-biotin; also called WT; wild-type
T3 peptide: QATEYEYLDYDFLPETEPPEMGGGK

T4: Biotin Y46,48,51(SO3) PSGL-1(42-62) peptide (human, sulfotyrosine at Y46, Y48 and Y51; C-terminal Lys-biotin)
T4 construct: also called fully sulfated N-terminal PSGL-1 peptide
T4 peptide: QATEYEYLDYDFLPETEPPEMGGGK

T5: Biotin PSGL-1(42-62) D52A peptide (C-terminal Lys-biotin)
T5 peptide: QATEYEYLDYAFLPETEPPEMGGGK


How the values were obtained:
[1] = target: T1, Cynomolgus PSGL-1(ECD)-HIS; assay: ELISA, plate cyno PSGL-1(ECD)-HIS
Protocol: Antibody binding to plate-immobilized cyno PSGL-1(ECD) was determined either at one concentration (20 nM) or by generating full antibody binding curves (0.003-200 nM). A typical ELISA was performed by overnight coating at 4° C. with 3 ug/mL/25 ul per well of recombinant cyno PSGL-1(ECD) protein in PBS, pH 7.4, in high binding half-well plates (Corning Cat. #3690). […] Anti-PSGL-1 IgG in assay buffer (blocking buffer containing 0.05% tween 20) was added into test and control wells (20 nM/25 ul/well) and the plate incubated for 45 min at 37° C. […] The plate was incubated for 45 min at 37° C., and mAb bound to plate-immobilized target determined at A450 nm using HRP substrate (3,3′,5,5′-tetramethylbenzidine (TMB)). For each antibody, duplicate values were averaged and assay background subtracted.

[2] = target: T2, Recombinant human PSGL-1(ECD)-hFc1 (R&D …); assay: ELISA, plate-bound target
[3] = target: T3, Biotin PSGL-1(42-62) peptide, unmodified; assay: ELISA, plate-bound target
[4] = target: T4, Biotin Y46,48,51(SO3) PSGL-1(42-62) …; assay: ELISA, plate-bound target
[5] = target: T5, Biotin PSGL-1(42-62) D52A peptide; assay: ELISA, streptavidin-bound Ala peptide

| Binder | EC50 [1] [nM] | EC50 [2] [nM] | EC50 [3] [nM] | EC50 [4] [nM] | EC50 [5] [nM] |
| --- | --- | --- | --- | --- | --- |
| 16L15 (antibody, V domains shown, From mouse immunisation; only variable domains given) VH: DVKLVESGGGLVKLGGSLKLSCAASGFTFSSYYMSWVRQTPEKRLEWVATISNGGGSTYYPDSVKDRFTISRDNAKNTLYLQMSSLNSEDTAVYYCAKPLYYSNPWFAYWGQGTLVTVSA VL: DVLLTQTPLSLPVSLGDQASISCRSSQSIVHSNGNTYLEWYLQKPGQSPKLLIYKVSNRFSGVPDRFSGSGSGTDFTLKISRVEAEDLGVYYCFQGSHVPRTFGGGTKLEIK | 0.53 | 0.96 | 0.89 | 0.92 | 19.9 |
| 5E12 (antibody, V domains shown, Mouse hybridoma mAb; only variable domains given) VH: EIQLQQSGAELVRPGASVKLSCTASGFNIKDDYIHWVKQRPEQGLEWIGRIDPANGNTKSAPKFQDKATITADTSSNTAYLHLSSLTSEDTAVYYCSIRFAYWGQGTLVTVSA VL: DVVMTQTPLSLSVSLGDQASISCRSSQSLVYRNGDTYLHWFLQKPGQSPKLLIYKVSNRFSGVPDRFSGSGSGTDFTLKISRVEAEDLGIYFCSQNTHVPYTFGGGTKLEIK | 0.59 | 0.51 | 0.86 | 0.92 |  |
| 2E12 (antibody, V domains shown, Mouse hybridoma mAb; only variable domains given) VH: QVQLQQSGAELARPGASVKLSCKASGYTFTNYGLNWVKQRTGQGLEWIGEIYPRSGNTYYNEKFKGKATLTADKSSSTAYMQLSSLTSEDSAVYFCATEGAYWGQGTLVTVSA VL: DIVMTQTPLTLSVTIGQPASISCKSSQSLLHGNGKTYLNWLLQRPGQSPKLLIYLVSKLESGIPDRFSGSGSGTDFTLEISRVEAEDLGIYYCLQSTHFPRTFGGGTKLEIK | 0.58 | 0.6 | 1.02 | 1.21 |  |
| 16E17 (antibody, V domains shown, From mouse immunisation; only variable domains given) VH: QIQLVQSGPELKKPGETVKISCKASGYAFTTYGMSWVKQAPGKGLKWMGWINTYSGVPKYADDFKGRFAFSLETSASTAYLHINNLKNEDTATYFCGRHYYGSSYFDYWGQGTTLTVSS VL: not shown | 0.53 |  |  |  |  |

Second part, the binder after the results:

| EC50 [1] [nM] | EC50 [2] [nM] | EC50 [3] [nM] | EC50 [4] [nM] | EC50 [5] [nM] | Binder |
| --- | --- | --- | --- | --- | --- |
| 8.49 |  |  |  |  | 18K07 (antibody, V domains shown, From mouse immunisation; only variable domains given) VH: QIQLVQSGPELKKPGETVKISCEASGYTFTTYGMNWVKQAPGKGLKWMGWINTYSGVPTYADDFQGRFAFSVETSATTAYLQINNLKNEDAATYFCARSDDTYYGFAYWGQGTLVTVSA VL: not shown |
| 0.51 | 0.57 | 0.68 | 0.45 | > 10 | 18F02 (antibody, V domains shown, From mouse immunisation; only variable domains given) VH: QVQLQQPGAELVKPGASVKLSCKASGYTFTSYWMHWVKQRPGQGLEWIGMIHPNSGRTNYNEKFKSKATLTVDKSSSTAYMQLSSLTSEDSAVYYCARSDYWGQGTTLTVSS VL: DIVMTQAAFSNPVTLGTSASISCRSSKSLLHSDGITYLYWFLQRPGQSPQLLIYRMSNLASGVPDRFSGSGSGTDFTLRISRVEAEDVGVYYCAQMLEFPRTFGGGTKLEIK |
| 0.95 |  |  |  |  | 19N05 (antibody, V domains shown, From mouse immunisation; only variable domains given) VH: QIQLVQSGPELKKPGETVKISCKASGYTFTTYGMSWVKQAPGKGLKWMGWINTYSGVPTFADDFKGRFAFSLETSASTAYLQINNLKNEDTATFFCARNYYGNHYFDYWGQGTTLTVSS VL: DVQITQSPSYLAASPGETISINCRASNNINKYLAWYQEKPGKTNKLLIYSGSTLQSGIPSRFSGSGSGTDFTLTISSLEPEDFAMYHCQQHNYYPLTFGAGTKLELK |
| 1.11 |  |  |  |  | 19L04 (antibody, IgG4, V domains shown, From mouse immunisation; only variable domains given) VH: QIQLVQSGPELKKPGETVKISCKASGYTFTTYGMSWVKQAPGKGLKWMGWINTYSGVPTYADDFKGRFAFSLETSASTAYLQINNLKIEDTATYFCARHYYGSHYFDYWGQGTTLTVSS VL: DIMMTQSPSSLAMSVGQKVTLRCKSSQSLLNSSNQKNYLAWYQQKPGQSPKLLVYFASTRESGVPVRFIGSGSGTDFTLTISSMQAEDLADYFCQQHYFSPLTFGAGTKLELK |

Source: US20220396632A1 (VERSEAU THERAPEUTICS, published 2022)
